Assay results: patent US20180051082A1 (ANAPTYSBIO, published 2018)
Positions count from the first letter of the chain named.

B1: APE2058 (antibody, human IgG1, V domains shown)
VH: EVQLLESGGGLVQPGGSLRLSCAASGFTFSSYDMSWVRQAPGKGLEWVSTISGGGSYTYYQDSVKGRFTISRDNSKNTLYLQMNSLRAEDTAVYYCASPYYAMDYWGQGTTVTVSS
VL: DIQLTQSPSFLSAYVGDRVTITCKASQDVGTAVAWYQQKPGKAPKLLIYWASTLHTGVPSRFSGSGSGTEFTLTISSLQPEDFATYYCQHYSSYPWTFGQGTKLEIK
notes: expressed from HEK 293 cells as human IgG1; also called anti-PD-1
B2: APE1923 (antibody, human IgG1, V domains shown)
VH: EVQLLESGGGLVQPGGSLRLSCAASGFTFSSYTMSWVRQAPGKGLEWVSVISSGGNSAYYPDSVQGRFTISRDNSKNTLYLQMNSLRAEDTAVYYCAKEHYGTSHFAYWGQGTLVTVSS
VL: EIVLTQSPATLSLSPGERATLSCRASESVDNFGISFMSWYQQKPGQAPRLLIYAASNPGSGIPARFSGSGSGTDFTLTISSLEPEDFAVYYCQQSKEVPYTFGQGTKLEIK
notes: expressed from HEK 293 cells as human IgG1
B3: APE1922 (antibody, human IgG1, V domains shown)
VH: B2 VH with N56D
VL: B2 VL
notes: as for B2
B4: APE1924 (antibody, human IgG1, V domains shown)
VH: B2 VH with S57Y
VL: B2 VL
notes: as for B2
B5: APE1950 (antibody, human IgG1, V domains shown)
VH: B2 VH with N56D, A58T
VL: B2 VL
notes: as for B2
B6: APE1963 (antibody, human IgG1, V domains shown)
VH: B2 VH with H100Y, T103S
VL: B2 VL
notes: as for B2
B7: 9A2 (mouse monoclonal antibody) (antibody, V domains shown)
VH: DVKLVESGGGLVKPGGSLKLSCAASGFTFSSYTLSWVRQTPGKRLEWVAVISSGGDYAYYPDSVQGRFTISRDNAKNTLYLQMNSLKSEDTAMYYCSRDHYGTSHFAYWGQGTLVTVSA
VL: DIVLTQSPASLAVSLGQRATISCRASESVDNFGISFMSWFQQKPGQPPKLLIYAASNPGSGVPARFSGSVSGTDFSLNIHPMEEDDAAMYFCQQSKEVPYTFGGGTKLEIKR
notes: Mouse hybridoma antibody
B8: 10B11 (mouse monoclonal antibody) (antibody, V domains shown)
VH: DVKLVESGGGLVKPGGSLKVSCAASGFTFSSYTMSWVRQTPEKRLEWVAVISSGGNSTYYPDSVKGRFTISRDNAKNTLYLQMSSLKSEDTAMYYCTREHYGSSHFAYWGQGTLVTVSA
VL: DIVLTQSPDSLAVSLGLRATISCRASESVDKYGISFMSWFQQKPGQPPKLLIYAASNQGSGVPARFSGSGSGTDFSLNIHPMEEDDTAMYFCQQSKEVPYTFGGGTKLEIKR
notes: Mouse hybridoma antibody
B9: 6E9 (mouse monoclonal antibody) (antibody, V domains shown)
VH: EVMLVESGGGLVKPGGSLKLSCAASGFTFSSYDMSWVRQTPEKRLEWVATISGGGSYTYYQDSVKGRFTISRDNAKNTLYLQMSSLRSEDTAMYYCASPYYAMDYWGQGTSVTVSS
VL: DIVMTQSHKFMSTSVGDRVSITCKASQDVGTAVAWYQQKPGQSPKLLIYWASTRHTGVPDRFTGSGSGTDFTLTISNVQSEDLADYFCQHYSSYPWTFGGGTKLEIKR
notes: Mouse hybridoma antibody
B10: 9A2 mouse:human chimeric antibody (antibody, human IgG1, V domains shown)
VH: B7 VH
VL: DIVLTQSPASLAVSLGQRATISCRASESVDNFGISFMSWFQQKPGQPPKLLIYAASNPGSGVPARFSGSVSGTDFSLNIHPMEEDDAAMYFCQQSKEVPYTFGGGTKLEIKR
notes: also called chimeric 9A2
B11: 10B11 mouse:human chimeric antibody (antibody, human IgG1, V domains shown)
VH: B8 VH
VL: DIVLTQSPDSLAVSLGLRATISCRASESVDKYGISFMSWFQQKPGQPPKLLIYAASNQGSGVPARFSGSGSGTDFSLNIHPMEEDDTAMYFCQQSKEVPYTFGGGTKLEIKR
notes: also called chimeric 10B11
B12: 6E9 mouse:human chimeric antibody (antibody, human IgG1, V domains shown)
VH: B9 VH
VL: B9 VL
notes: also called chimeric 6E9

Columns and labels:
[1] = target: T1, monomeric soluble human PD1-Avi-His (human, UniProt Q15116 25-170); assay: SPR (BIACORE T200), antibody captured on anti-human IgG, monomeric PD1-Avi-His flowed, 1:1 fit
T1 construct: extracellular domain; not shown: Avi tag and His tag at the C-terminus
Method: SPR analyses were carried out using a BIACORE™ T200 instrument, and kinetic constants were determined using the BIACORE™ T200 evaluation software. Experimental parameters were chosen to ensure that saturation would be reached at the highest antigen concentrations and that Rmax values would be kept under 30 RU. GE anti-Human IgG (Fc-specific, approximately 7,000 RU) was immobilized on a BIACORETM CM5 chip using EDC-activated amine coupling chemistry. Antibodies (0.5 μg/mL, 60 second capture time) were then captured using this surface. Next, monomeric soluble human PD1-Avi-His was flowed over captured antibody (300 second association, 300 second dissociation) using a three-fold serial dilution series from 500 nM to 2 nM. Captured antibody and antigen were removed between each cycle using 3 M MgCl₂ (60 second contact time) in order to ensure a fresh binding surface for each concentration of antigen. The resulting sensorgrams were fit globally using a 1:1 binding model in order to calculate on- and off-rates (kₐ and kd, respectively), as well as affinities (KD).

[2] = target: T1, monomeric soluble human PD1-Avi-His; assay: KINEXA 3000 solution-based affinity, PD1-Avi-His titrated against constant antibody
Method: Solution-based affinity analyses were carried out using a KINEXA™ 3000 assay (Sapidyne Instruments, Boise, Idaho), and results were analyzed using KINEXA™ Pro Software 3.2.6. Experimental parameters were selected to reach a maximum signal with antibody alone between 0.8 and 1.2 V, while limiting nonspecific binding signal with buffer alone to less than 10% of the maximum signal. Azlactone beads (50 mg) were coated with antigen by diluting in a solution of PD-1-Avi-His (50 μg/mL in 1 mL) in 50 mM Na₂CO₃. The solution was rotated at room temperature for 2 hours, and beads were pelleted in a picofuge and washed twice with blocking solution (10 mg/mL BSA, 1 M Tris-HCl, pH 8.0). Beads were resuspended in blocking solution (1 mL), rotated at room temperature for 1 hour, and diluted in 25 volumes PBS/0.02% NaN3. […] All samples were diluted in PBS, 0.2% NaN₃, 1 mg/mL BSA and allowed to equilibrate at room temperature for 30 hours. Additionally, samples containing only antibody and only buffer were tested in order to determine maximum signal and nonspecific binding signal, respectively.

[3] = target: T2, full-length human PD-1 on the cell surface (human, UniProt Q15116 25-288); assay: cell-based or functional assay
[4] = target: T2, full-length human PD-1 on the cell …; assay: hybridoma screening, flow cytometry on PD-1 CHO-K1 cells (Example 1)
Method: Hybridoma supernatants from ten 96-well plates were screened for binding to a CHO-K1 cell clone stably transfected with a nucleic acid sequence encoding full length human PD-1 and compared to binding to untransfected CHO-K1 cells. Specifically, hybridoma supernatants were diluted 1:1 with PBS/2% FBS and incubated with an equal volume of PD-1 CHO-K1 cells (2.5×10⁵ cells in PBS, 2% FBS) for 30 minutes at 4° C. Cells were centrifuged, washed once with PBS/1% FBS, and incubated with APC-conjugated goat anti-mouse IgG (H+L) (Southern Biotechnology, Birmingham, Ala.) for 30 minutes at 4° C. […] Mouse IgG levels were quantified by ELISA.

[5] = target: T2, full-length human PD-1 on the cell …; assay: binding to PD-1 antigens as in Example 1 (format not restated)

T1 sequence (Q15116 25-170): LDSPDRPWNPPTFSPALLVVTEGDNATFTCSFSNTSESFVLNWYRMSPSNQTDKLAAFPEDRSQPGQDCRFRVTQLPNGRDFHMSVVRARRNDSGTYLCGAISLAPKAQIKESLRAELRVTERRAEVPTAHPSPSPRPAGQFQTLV
T2 sequence (Q15116 25-288): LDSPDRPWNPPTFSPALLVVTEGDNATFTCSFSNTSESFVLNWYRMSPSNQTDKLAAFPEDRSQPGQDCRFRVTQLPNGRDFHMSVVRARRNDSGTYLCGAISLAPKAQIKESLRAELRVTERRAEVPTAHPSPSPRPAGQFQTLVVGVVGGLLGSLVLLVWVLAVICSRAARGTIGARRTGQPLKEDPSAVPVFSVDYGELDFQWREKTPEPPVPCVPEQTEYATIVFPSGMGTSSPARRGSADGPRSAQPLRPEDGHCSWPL

Binder	Kd [1]	koff [1]	kon [1]	further results
B1	2 nM	0.00064 s⁻¹	300000 M⁻¹ s⁻¹	Kd [2]: 0.2 nM; EC50, multiple human CD4+ T-cell MLR assays [3]: 20 ng/mL
B2	9 nM	0.0017 s⁻¹	190000 M⁻¹ s⁻¹	Kd [2]: 1 nM
B3	15 nM	0.0018 s⁻¹	130000 M⁻¹ s⁻¹	
B4	10 nM	0.0018 s⁻¹	180000 M⁻¹ s⁻¹	Kd [2]: ~1 nM
B5	17 nM	0.0025 s⁻¹	150000 M⁻¹ s⁻¹	
B6	17 nM	0.001 s⁻¹	58000 M⁻¹ s⁻¹	
B7				binding result [4]: binds
B8				binding result [4]: binds
B9				binding result [4]: binds
B10				binding result [5]: binds
B11				binding result [5]: binds
B12				binding result [5]: binds
